Results taken from the supplement of paper PMC9112550, “Optimization of the antimicrobial peptide Bac7 by deep mutational scanning” (BMC Biology, 2022).

These sequences were tested on Escherichia coli TOP10 (assay: shrunken log2 fold change of peptide-encoding DNA abundance (4.5 h post-induction vs induction); higher = less antimicrobial activity (less host growth inhibition)). Settings: time post-induction: 4.5 h; library: site-saturation at positions 5, 18, 19, 20.
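Also: peptides expressed intracellularly from a pBAD plasmid library in pooled LB shake-flask culture, induced with 0.3% L-arabinose, DNA abundance read by NGS, three biological replicates, DESeq2 with apeglm shrinkage.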

Point of comparison: RRIRMRPPRLPRPRPRPLIPPRP, “shrunken log2 fold change” value -0.0413. Against it:
- RRIRPRPPRLPRPRPRPNENPRP — lower, -0.348
- RRIRNRPPRLPRPRPRPMLAPRP — within 0.2 log units, -0.053
- RRIRCRPPRLPRPRPRPTNCPRP — lower, -0.282
- RRIRARPPRLPRPRPRPTMHPRP — higher, 0.354
- RRIRVRPPRLPRPRPRPKYPPRP — within 0.2 log units, -0.188
- RRIRARPPRLPRPRPRPSGPPRP — within 0.2 log units, 0.0223
- RRIRPRPPRLPRPRPRPDIIPRP — within 0.2 log units, 0.00942
- RRIRQRPPRLPRPRPRPHSVPRP — within 0.2 log units, -0.0178
- RRIRCRPPRLPRPRPRPYFSPRP — within 0.2 log units, -0.135
- RRIRARPPRLPRPRPRPHKDPRP — within 0.2 log units, 0.0954
- RRIRKRPPRLPRPRPRPDKWPRP — higher, 0.429
- RRIRGRPPRLPRPRPRPDHPPRP — within 0.2 log units, -0.0241
- RRIRCRPPRLPRPRPRPCGTPRP — lower, -0.306
- RRIRHRPPRLPRPRPRPYSMPRP — lower, -0.878
- RRIRNRPPRLPRPRPRPGKKPRP — within 0.2 log units, -0.00783
- RRIRNRPPRLPRPRPRPENKPRP — within 0.2 log units, -0.0669
- RRIRCRPPRLPRPRPRPTGSPRP — within 0.2 log units, 0.0208
- RRIRERPPRLPRPRPRPKGEPRP — within 0.2 log units, 0.0173
- RRIRLRPPRLPRPRPRPCSNPRP — lower, -0.47
- RRIRWRPPRLPRPRPRPKFPPRP — higher, 0.944
- RRIRGRPPRLPRPRPRPEVYPRP — higher, 0.346
- RRIRVRPPRLPRPRPRPRVRPRP — higher, 0.363
- RRIRERPPRLPRPRPRPLKTPRP — lower, -0.457
- RRIRVRPPRLPRPRPRPWRYPRP — within 0.2 log units, 0.0359
- RRIRKRPPRLPRPRPRPDKSPRP — within 0.2 log units, 0.0207
- RRIRFRPPRLPRPRPRPFNNPRP — lower, -0.262
- RRIRWRPPRLPRPRPRPIVMPRP — within 0.2 log units, -0.154
- RRIRSRPPRLPRPRPRPWPFPRP — within 0.2 log units, 0.0554
- RRIRIRPPRLPRPRPRPQCNPRP — within 0.2 log units, -0.0824
- RRIRARPPRLPRPRPRPFLPPRP — lower, -0.379
- RRIRVRPPRLPRPRPRPGCSPRP — higher, 0.186
- RRIRTRPPRLPRPRPRPILAPRP — within 0.2 log units, 0.00499
- RRIRDRPPRLPRPRPRPVQHPRP — within 0.2 log units, -0.012
- RRIRDRPPRLPRPRPRPIDEPRP — within 0.2 log units, 0.0126
- RRIRSRPPRLPRPRPRPRDTPRP — within 0.2 log units, 0.0657
- RRIRKRPPRLPRPRPRPIFPPRP — higher, 0.319
- RRIRMRPPRLPRPRPRPWPYPRP — higher, 0.213
- RRIRMRPPRLPRPRPRPFCDPRP — higher, 0.179
- RRIRRRPPRLPRPRPRPGEYPRP — higher, 0.264
- RRIRERPPRLPRPRPRPVRHPRP — within 0.2 log units, 0.131
- RRIRQRPPRLPRPRPRPQAWPRP — within 0.2 log units, 0.0305
- RRIRQRPPRLPRPRPRPPACPRP — higher, 0.162
- RRIRIRPPRLPRPRPRPHGAPRP — within 0.2 log units, -0.0865
- RRIRGRPPRLPRPRPRPCKPPRP — within 0.2 log units, 0.108
- RRIRMRPPRLPRPRPRPCFYPRP — within 0.2 log units, -0.16
- RRIRHRPPRLPRPRPRPFTTPRP — within 0.2 log units, -0.0869
- RRIRQRPPRLPRPRPRPNMVPRP — within 0.2 log units, -0.0131
- RRIRKRPPRLPRPRPRPLPDPRP — within 0.2 log units, -0.105
- RRIRRRPPRLPRPRPRPSSQPRP — lower, -0.25
- RRIRNRPPRLPRPRPRPTYTPRP — lower, -0.303
- RRIRHRPPRLPRPRPRPRDQPRP — within 0.2 log units, -0.0907
- RRIRMRPPRLPRPRPRPGWTPRP — higher, 0.185
- RRIRYRPPRLPRPRPRPNWGPRP — within 0.2 log units, -0.0851
- RRIRQRPPRLPRPRPRPMQLPRP — within 0.2 log units, -0.15
- RRIRYRPPRLPRPRPRPHVDPRP — lower, -0.588
- RRIRYRPPRLPRPRPRPEVAPRP — within 0.2 log units, -0.0541
- RRIRFRPPRLPRPRPRPCWQPRP — higher, 3.76
- RRIRWRPPRLPRPRPRPVLMPRP — within 0.2 log units, -0.0411
- RRIRRRPPRLPRPRPRPGELPRP — within 0.2 log units, 0.12
- RRIRERPPRLPRPRPRPVRLPRP — within 0.2 log units, 0.0832
- RRIRFRPPRLPRPRPRPEFIPRP — lower, -0.523
- RRIRKRPPRLPRPRPRPWHSPRP — within 0.2 log units, 0.0422
- RRIRWRPPRLPRPRPRPLDPPRP — within 0.2 log units, 0.0629
- RRIRIRPPRLPRPRPRPTWFPRP — higher, 0.159
- RRIRRRPPRLPRPRPRPGLEPRP — higher, 0.472
- RRIRQRPPRLPRPRPRPSRPPRP — higher, 0.37
- RRIRFRPPRLPRPRPRPPKTPRP — within 0.2 log units, 0.0214
- RRIRERPPRLPRPRPRPQLEPRP — within 0.2 log units, -0.0385
- RRIRARPPRLPRPRPRPAWEPRP — higher, 0.925
- RRIRKRPPRLPRPRPRPVAEPRP — higher, 0.973
- RRIRLRPPRLPRPRPRPSQIPRP — within 0.2 log units, 0.0199
- RRIRKRPPRLPRPRPRPVFTPRP — within 0.2 log units, -0.0937
- RRIRGRPPRLPRPRPRPRMPPRP — higher, 0.605
- RRIRYRPPRLPRPRPRPRPWPRP — higher, 0.332
